Drawing on article PMC4010280, this text covers kcat and kcat/Km for one protein.

Substrate in series [1]: O=C(O)[C@@H](O)[C@H](O)[C@H](O)CO
The series is described as follows: purified protein.

Substrate in series [2]: O=C(O)[C@H](O)[C@H](O)[C@H](O)CO
The series is described as follows: purified protein.

Substrate in series [3]: O=C(O)[C@@H](O)[C@H](O)[C@H](O)[C@@H](O)CO
The series is described as follows: purified protein.

Substrate in series [4]: O=C(O)[C@H](O)C(O)[C@@H](O)C(=O)O
The series is described as follows: purified protein.

Substrate in series [5]: C[C@H](O)[C@@H](O)[C@@H](O)[C@H](O)C(=O)O
The series is described as follows: coupled enzyme dehydration assay. In kind it is biochemical, Homo sapiens.

B1: rTSγ (HsrTSγ) (Homo sapiens) (protein)
chain: MVRGRISRLSVRDVRFPTSLGGHGADAMHTDPDYSAAYVVIETDAEDGIKGCGITFTLGKGTEVVVCAVNALAHHVLNKDLKDIVGDFRGFYRQLTSDGQLRWIGPEKGVVHLATAAVLNAVWDLWAKQEGKPVWKLLVDMDPRMLVSCIDFRYITDVLTEEDALEILQKGQIGKKEREKQMLAQGYPAYTTSCAWLGYSDDTLKQLCAQALKDGWTRFKVKVGADLQDDMRRCQIIRDMIGPEKTLMMDANQRWDVPEAVEWMSKLAKFKPLWIEEPTSPDDILGHATISKALVPLGIGIATGEQCHNRVIFKQLLQAKALQFLQIDSCRLGSVNENLSVLLMAKKFEIPVCPHAGGVGLCELVQHLIIFDYISVSASLENRVCEYVDHLHEHFKYPVMIQRASYMPPKDPGYSTEMKEESVKKHQYPDGEVWKKLLPA
B1: the kcat came to 0.04 ± 0.002 s⁻¹ in the series “purified protein [1]”; 0.002 ± 0.001 s⁻¹ in the series “purified protein [2]”; 0.3 ± 0.01 s⁻¹ in “purified protein [3]”; 0.3 ± 0.004 s⁻¹ in “purified protein [4]”; 0.5 ± 0.006 s⁻¹ in series [5]. The kcat/Km is 20 M⁻¹ s⁻¹ in “purified protein [1]”; 5 M⁻¹ s⁻¹ in the series “purified protein [2]”; 100 M⁻¹ s⁻¹ in “purified protein [3]”; 75 M⁻¹ s⁻¹ in the series “purified protein [4]”; 2500 M⁻¹ s⁻¹ in series [5].

The kcat is the number of substrate molecules converted per active site and unit of time at saturation. The kcat/Km is the second-order rate constant that governs catalysis at low substrate concentration.
